Assay [1] relates to GLIC–GABAAρ1–ICD chimeras. The assay is described as follows: Proton concentration–response. It is filed as cell-based, G. violaceus GLIC / human GABAAρ1. Particulars: proton activation (pH50), GLIC–GABAAρ1–ICD set, TEVC, −60 mV, ± standard error.
The test system of a further assay is GLIC–Glyα1–ICD chimeras. The assay is described as follows: Proton concentration–response. It is filed as cell-based, G. violaceus GLIC / rat Glyα1. The following applies: proton activation (pH50), GLIC–Glyα1–ICD set, TEVC, −60 mV, ± standard error.
Another assay has as its system GLIC–nAChα7–ICD chimeras. The assay can be described thus: Proton concentration–response. In kind it is cell-based, G. violaceus GLIC / human nAChRα7. The following applies: proton activation (pH50), GLIC–nAChα7–ICD set, TEVC, −60 mV, ± standard error.
In assay [2] the test system is GLIC–nAChα7–ICD chimeras and wild-type GLIC. In kind it is cell-based, G. violaceus GLIC / human nAChRα7. Particulars: pH 7.5 to 5, after 48 h.

B1: WT GLIC: wild-type Gloeobacter violaceus proton-gated pentameric ligand-gated ion channel (protein)
chain: QDMVSPPPPIADEPLTVNTGIYLIECYSLDDKAETFKVNAFLSLSWKDRRLAFDPVRSGVRVKTYEPEAIWIPEIRFVNVENARDADVVDISVSPDGTVQYLERFSARVLSPLDFRRYPFDSQTLHIYLIVRSVDTRNIVLAVDLEKVGKNDDVFLTGWDIESFTAVVKPANFALEDRLESKLDYQLRISRQYFSYIPNIILPMLFILFISWTAFWSTSYEANVTLVVSTLIAHIAFNILVETNLPKTPYMTYTGAIIFMIYLFYFVAVIEVTVQHYLKVESQPARAASITRASRIAFPVVFLLANIILAFLFFGF
modifications: left off: FLAG, C-terminal, state not stated
As for B1, the “−log EC50” value (in assay [1]; with GLIC–Glyα1–ICD chimeras; with GLIC–nAChα7–ICD chimeras) was 5.81 ± 0.05 in each case. In addition, the “effect of RIC-3 co-expression on current amplitudes” value in assay [2] is given as “did not alter”.

For the origin of these results see article PMC4414916 (Biochemistry, 2015).
